Test results from EP2574667A1, “Enzyme variants” (Technische Universität Graz, priority 2011, dated 2013).

Legend:
[1] = system: O=C(O)C(=O)Cc1ccccc1; experiment: Steady state kinetics by O2 depletion, HMS variant V223W; format: biochemical, Streptomyces coelicolor A3 (2); conditions: other: Table 3, apparent, air saturation, pH 7.5, 25.0 °C
Method: (§1) Dioxygen consumption was continuously monitored using a micro-optode O2 sensor (Microtox TX3-AOT, Presens GmbH,Regensburg, Germany). Assays were generally performed at 25°C in air saturated 20 mM Tris/HCl buffer, pH 7.5 with enzyme concentrations of approx. 20 µM. To start the reaction, substrate aliquots were added from 5 mM stock solutions of the respective substrate to the desired end-concentration in a total volume of 500 µL. Initial rates were determined by linear regression analysis using the initial, linear part of the O2 depletion curve. O2 consumption rates from blanks that contained substrate in the absence of enzyme were subtracted as necessary. Specific activities were obtained by relating measured rates of O2 depletion to the protein derived Fe(II) content in the assay.
(§2) Kinetic analysis was performed via measuring O2 depletion. Kinetic parameters are apparent, as measurements were performed at air saturation. Product analysis was performed via HPLC (method is outlined in Appendix B) and confirmed via GC-MS. It could be shown that the enzyme converts phenylpyruvate analogues as a whole cell system, when a substrate analogue (e.g. p-F-phenylpyruvate) was added to cultures of E.coli BL21 cells overexpressing HMS variant S221M_V223M_Y359A. The overexpression was induced with IPTG as described in Material and Methods. […]

[2] = system: O=C(O)C(=O)Cc1ccccc1; experiment: Steady state kinetics by O2 depletion, HMS variant V223F Y359A; format: biochemical, Streptomyces coelicolor A3 (2); conditions: other: Table 3, apparent, air saturation, pH 7.5, 25.0 °C
Method: as §1, §2

[3] = system: O=C(O)C(=O)Cc1ccccc1; experiment: Steady state kinetics by O2 depletion, HMS variant V223F; format: biochemical, Streptomyces coelicolor A3 (2); conditions: other: Table 3, apparent, air saturation, pH 7.5, 25.0 °C
Method: as §1, §2

[4] = system: O=C(O)C(=O)Cc1ccccc1; experiment: Steady state kinetics by O2 depletion, HMS variant Y359A; format: biochemical, Streptomyces coelicolor A3 (2); conditions: other: Table 3, apparent, air saturation, pH 7.5, 25.0 °C
Method: as §1, §2

[5] = system: O=C(O)C(=O)Cc1ccccc1; experiment: Steady state kinetics by O2 depletion, HMS variant V223M; format: biochemical, Streptomyces coelicolor A3 (2); conditions: other: Table 3, apparent, air saturation, pH 7.5, 25.0 °C
Method: as §1, §2

[6] = molecular target: T1, 4-hydroxymandelate synthase (Hms, HMS) from Streptomyces coelicolor A3 (2), wild type, SEQ ID No. 1 (Streptomyces coelicolor, UniProt Q9Z4X7); conditions: Table 2; apparent, air saturation (260 µM dioxygen), Tris buffer 20 mM pH 7.5, 25°C
T1 sequence (Q9Z4X7 1-371): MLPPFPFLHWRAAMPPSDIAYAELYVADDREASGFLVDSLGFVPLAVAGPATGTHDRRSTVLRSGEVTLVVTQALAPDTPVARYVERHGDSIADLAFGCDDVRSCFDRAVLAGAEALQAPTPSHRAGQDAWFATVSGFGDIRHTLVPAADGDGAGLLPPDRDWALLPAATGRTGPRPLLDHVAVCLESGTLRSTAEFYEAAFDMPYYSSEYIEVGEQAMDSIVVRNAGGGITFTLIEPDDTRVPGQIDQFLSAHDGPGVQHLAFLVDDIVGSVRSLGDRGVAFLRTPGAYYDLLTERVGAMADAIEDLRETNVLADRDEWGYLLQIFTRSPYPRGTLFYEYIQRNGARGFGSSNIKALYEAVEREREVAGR
Method: (§3) The reactivity of HMS towards a range of aromatic oxo-acids was assessed, whereby the impact of substituents in the para-position of the aromatic ring regarding electronic structure and size was probed. […] Where activities were high enough to allow a steady state kinetic analysis, specific activities (kcat) and Michaelis Menten constants (Km) were determined (the assays were performed at air saturation (=260µM dioxygen concentration, therefore all kinetic constants are apparent)). […] Reactions were performed in Tris buffer (20 mM, pH 7.5), at 25°C at air saturation.

[7] = system: O=C(O)C(=O)Cc1ccccc1; experiment: Steady state kinetics by O2 depletion, HMS variant S221M_Y359A; format: biochemical, Streptomyces coelicolor A3 (2); conditions: other: Table 3, apparent, air saturation, pH 7.5, 25.0 °C
Method: as §1, §2

[8] = system: O=C(O)C(=O)Cc1ccccc1; experiment: Steady state kinetics by O2 depletion, HMS variant I236F; format: biochemical, Streptomyces coelicolor A3 (2); conditions: other: Table 3, apparent, air saturation, pH 7.5, 25.0 °C
Method: as §1, §2

[9] = system: O=C(O)C(=O)Cc1ccccc1; experiment: Steady state kinetics by O2 depletion, HMS variant S221M; format: biochemical, Streptomyces coelicolor A3 (2); conditions: other: Table 3, apparent, air saturation, pH 7.5, 25.0 °C
Method: as §1, §2

[10] = substrate: O=C(O)C(=O)Cc1ccc(F)cc1; experiment: purified protein, by the assay type; conditions: other: Table 2, apparent, air saturation (260 µM dioxygen), Tris buffer 20 mM pH 7.5, 25°C
Method: as §3

[11] = substrate: O=C(O)C(=O)Cc1ccccc1; experiment: purified protein, by the assay type; conditions: other: Table 3; apparent, air saturation, O2 depletion; pH 7.5; 25.0 °C
[12] = substrate: O=C(O)C(=O)Cc1ccc([N+](=O)[O-])cc1; experiment: purified protein, by the assay type; conditions: other: Table 2, apparent, air saturation (260 µM dioxygen), Tris buffer 20 mM pH 7.5, 25°C
Method: as §3

[13] = substrate: Cc1ccc(CC(=O)C(=O)O)cc1; experiment: purified protein, by the assay type; conditions: other: Table 2, apparent, air saturation (260 µM dioxygen), Tris buffer 20 mM pH 7.5, 25°C
Method: as §3

[14] = substrate: COc1ccc(CC(=O)C(=O)O)cc1; experiment: purified protein, by the assay type; conditions: other: Table 2, apparent, air saturation (260 µM dioxygen), Tris buffer 20 mM pH 7.5, 25°C
Method: as §3

“4-hydroxymandelate synthase (HMS) from Streptomyces coelicolor A3 (2), variant V223W, SEQ ID No. 3 (Streptomyces coelicolor A3(2); V223W)” gave a Km [1] of 230 µM and a kcat [1] of 0.5 s⁻¹.

With “4-hydroxymandelate synthase (HMS) from Streptomyces coelicolor A3 (2), variant V223F Y359A (V223F_Y359A), SEQ ID No. 7 (Streptomyces coelicolor A3(2); V223F/Y359A)” the Km [2] was 1000 µM and the kcat [2] was 2.1 s⁻¹.

For “4-hydroxymandelate synthase (HMS) from Streptomyces coelicolor A3 (2), variant V223F, SEQ ID No. 2 (Streptomyces coelicolor A3(2); V223F)”, the Km [3] was 27 µM and the kcat [3] was 1.1 s⁻¹.

Molecule “4-hydroxymandelate synthase (HMS) from Streptomyces coelicolor A3 (2), variant Y359A, SEQ ID No. 5 (Streptomyces coelicolor A3(2); Y359A)” has a Km [4] of 270 µM and a kcat [4] of 4.8 s⁻¹.

In the case of “4-hydroxymandelate synthase (HMS) from Streptomyces coelicolor A3 (2), variant V223M, SEQ ID No. 4 (Streptomyces coelicolor A3(2); V223M)”, the Km [5] is reported as 230 µM and the kcat [5] is reported as 1.9 s⁻¹.

COc1ccc(CC(=O)C(=O)[O-])cc1.[Na+] was tested, and the kcat [6] was 0.96 ± 0.12 s⁻¹.

“4-hydroxymandelate synthase (HMS) from Streptomyces coelicolor A3 (2), variant S221M_Y359A, SEQ ID No. 8 (Streptomyces coelicolor A3(2); S221M/Y359A)” gave a Km [7] of 240 µM and a kcat [7] of 1.1 s⁻¹.

For “4-hydroxymandelate synthase (HMS) from Streptomyces coelicolor A3 (2), variant I236F (Streptomyces coelicolor A3(2); I236F)”, the Km [8] was 2000 µM and the kcat [8] was 0.9 s⁻¹.

With “4-hydroxymandelate synthase (HMS) from Streptomyces coelicolor A3 (2), variant S221M, SEQ ID No. 6 (Streptomyces coelicolor A3(2); S221M)” the Km [9] was 330 µM and the kcat [9] was 1.9 s⁻¹.

B1: 4-hydroxymandelate synthase (Hms, HMS) from Streptomyces coelicolor A3 (2), wild type, SEQ ID No. 1 (Streptomyces coelicolor A3(2)) (protein)
chain: T1 sequence (Q9Z4X7 1-371)
Molecule B1 has a kcat [10] of 0.077 ± 0.004 s⁻¹, a Km [11] of 350 µM and a kcat [11] of 0.9 s⁻¹. It also gave a kcat [12] of 0.035 ± 0.007 s⁻¹, a kcat [13] of 0.13 ± 0.02 s⁻¹ and a Km [14] of 160 ± 70 µM.
